test system: MS2 coat protein; assay: apparent KD of MS2 coat protein, switch ON state; designed switch direction (-1 OFF switch, 1 ON switch): 1; higher = weaker reporter binding; details: FMN input: 0 or 200 uM; Eterna round: R93 (includes R88 designs)
Procedure, shortened: (§1)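 Designed RNA switches were transcribed on-chip from Illumina sequencing clusters. They were then titrated with SNAP-549-labelled MS2 coat protein (twofold steps, 0.7 or 1.5 nM to 3 µM; 0.8–1.5 h to 10–20 min per step) in 100 mM Tris-HCl pH 7.5, 80 mM KCl, 4 mM MgCl2, without or with constant ligand. Apparent KD is the per-design median of normalised cluster binding-curve fits.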

Sequence | apparent KD of MS2 coat protein [nM]
CGGCAAGAGAGAGAGGAUAUCCAAAGGAAAACAUGAGGAUCACCCAUGUAGAAGGUAGGAAAUUGGGAGAAGGCUCAAGAGAGAG [salish99-ss2-135] | 23.2
AAACAAACAACGCAGGAUAUGCAAAAACCCACAUGAGGAUCACCCAUGUCCCAACAACAAACAAAGCAGAAGGGCGAACAAACAAA [High Roller1] | 37.3
AAGAAACAUGAGGAUCACCCAUGUAAAAAUAUGGGAGGAUAUGCGAAAAGAAACAAAGAAGCAGAAGGCCUAAGAA [75%, Ex5 sub 1, 6] | 15.9
AAUAUAUUAAGUGAGGAUAUCGAGGAAAAAACAUGAGGAUCACCCAUGUGGGUAAAAAAAAAAAGUGAGAAGGUGCUUAAUAUAU [Samwise Clockwise 10 - Jieux - Same State 2] | 32.3
CCUAGGAAGAGAGAGGAUAUCCAAAGGAAAACAUGAGGAUCACCCAUGUAAAAGGUAGGAAAUUGGGAGAAGGCUCAAGAGAGAG [salish99-ss2-088] | 20.9
GAAAAACAUGAGGAUCACCCAUGUACAAAUAUGGAAGGAUAUACGAUGACGAAAGUCAAAGUAGAAGGUCUAAAAG [Garnet 98] | 20.9
AAAAUAUAAACAGAGGAUAUCCAAAGAACCACAUGAGGAUCACCCAUGUAAAGAAAGAAUAAGUGGGAGAAGGUUGAAAUAAUAA [Designing denovo 26] | 49.9
CGGAAGGAGAGAGAGGAUAUCCAAAGGAAAACAUGAGGAUCACCCAUGUAGAAGGUAGGAAAUUGGGAGAAGGCUCAAGAGAGUG [salish99-ss2-121] | 30.2
AGAAAUAAAAGAGAGGAUAUCCAAAAGAAAACAUGAGGAUCACCCAUGUGAAACAAAACAAAAUGGGAGAAGGCUCAAAAUAAGA [Topaz 16] | 31
AAGAAACAUGAGGAUCACCCAUGUAAGAUAAACACAGGAUAUGCGAAAAGAAAUAAAGAAGCAGAAGGGUGAAGAA [Mat - Same State 1 - Tesla mod - 63] | 21.7
AAAAAAAAAAGUCAGGAUAUGCAGGGCGGGACAUGAGGAUCACCCAUGUGGCGGAAAAAAAAAAAGCAGAAGGGACGAAUAAAAAA [William Edwards Deming] | 23.1
AAAAGACAUGAGGAUCACCCAUGUAGGCCAAAGCAAGGAUAUAGGCCACAGGGACGUGAACUAGAAGGUGCACGGC [Zainlebe] | 30.8
AGAAAUAAAAGAGAGGAUAUCCAAAAUAAAACAUGAGGAUCACCCAUGUCUACGAAAGUAGGAUGGGAGAAGGCUCAAAAUAAAG [80% More Helter Skelter 2 + Hairpin] | 120
GAAAAACAUGAGGAUCACCCAUGUGGAAAUAUGGGAGGAUAUACGAAGACGAAAGUCAAAGUAGAAGGCCUAAAAG [Same State 1.4c (Mat - Mod of Eli - )] | 22
AAAAAACAUGAGGAUCACCCAUGUGCAAAAUUCGCAGGAUAUUCCUCAAUUAAAUGAGAGGAAGAAGGGUGACAAA [Nob's Hobby 29 - Jieux - Same State 1] | 112
AAAAAACAUGAGGAUCACCCAUGUAAAAAAAUCACAGGAUAUAAGGUCGCGAAAGCGACCUUAGAAGGGUGAUCAA | 58.8
AAUGAACAUGAGGAUCACCCAUGUUCUAAUAGUUGAGGAUAUAUGGGUGAAAAUAGCACGGUAGAAGGCGAGUGUA [SameState1 Malc#18] | 249
AAGAAACAUGAGGAUCACCCAUGUAAGAUAAACACAGGAUAUGCGAAAGAAACAAAGAAAGCAGAAGGGUGAAGAA [Mat - Same State 1 - Tesla mod - 48] | 9.76
AGAAAUAAAAGAGAGGAUAUCCAAAAUAAAACAUGAGGAUCACCCAUGUGAAACAAAACAAAAUGGGAGAAGGCUCAAAAUAAGA [Topaz 17] | 15.7
AAGAAACAUGAGGAUCACCCAUGUAGAAAUAUGGGAGGAUAUACGAGGACGAAAGUCAAAGUAGAAGGCCUAAGAA [Mat - Same State 1 - Meechl mod - D130] | 19.6
UAAAAAAAAAGACAGGAUAUCCAAAAGAAAACAUGAGGAUCACCCAUGUAAAAGAAAAUAAAAUGGGAGAAGGGUCAAAAAAAAU [Mat - Same State 2 - JL mod - D79] | 31

test system: MS2 coat protein; assay: apparent KD of MS2 coat protein, switch ON state; designed switch direction (-1 OFF switch, 1 ON switch): -1; higher = weaker reporter binding; details: FMN input: 0 or 200 uM; Eterna round: R93 (includes R88 designs)
Procedure, shortened: as §1

Sequence | apparent KD of MS2 coat protein [nM]
AAGGGACAUGAGGAUCACCCAUGUUAGGAUAUGCAAAUAACAAACAACAAACAACAAAGCAGAAGGGACAAAAA [Mat - Exclusion 1 - Eli mod - D54] | 37.5
AGGUAGUCAGGAUAUGCGUGAAGAAUAAAACAAAUAACAACGCAGAAGGGACAUGAGGAUCACCCAUGUUAAGA [May 48] | 36.1
UUUUGACAUGAGGAUCACCCAUGUCAGGAUAUAGUAAGAAAAAAAAAAAAAAAAACUACUAGAAGGGAUAUGGA [Amethyst 51] | 24.5
AAAAAGUGAGGAUAUACAUGAGGAUCACCCAUGUGUAUAAAAAAAUACACAAAAGAAAGUAGAAGGCACUAAAA [Ex 3 Hot] | 21.1
GCUGUGCUAGGAUAUACAUGAGGAUCACCCAUGUGAGAGAAAAAAGUGAGAAAGAAAAGUAGAAGGAGCGUAGG [salish99-ex3-100] | 29.1
AAACAACAUGAGGAUCACCCAUGUCAGGAUAUGAACGAAAAUAAAUAAAAAUAAAAGUUCAGAAGGGACGAAAA [66%, Wbt, 16] | 31.6
AACUGACAUGAGGAUCACCCAUGUCAGGAUAUGAUUUGACGAAAUAAAUAAAGUCAUAUCAGAAGGGACAUGGA [Design 80: Sub-opt U] | 25
AAUAAAGCAGGAUAUACUAAAGAAAUGAAAAGAAAUAAAGAACAUGAGGAUCACCCAUGUAGAAGGGCUAAUAA [Semqen] | 42.8
GAAAAUGGAGGAUAUACGUACAUGUCAAAAGACGUGAAGGGACAUGAGGAUCACCCAUGUAGAAGGCUAAAAAG [Mat - Exclusion 2 - JL mod - D96] | 101
GUGUACAGAGGAUAUACAUAAGCAUGGAAACAUGCAACUUCACAUGAGGAUCACCCAUGUAGAAGGCUGUACAC [Ex2: 729] | 12.1
AUCAUGUAAGGAUAUUCAAGAAAAGAAAAGAAAGAAAAGAAGAAGAAGGUACAUGAGGAUCACCCAUGUAAGAA [EteRNA is fun!] | 42.5
AAAAGUGGAGGAUAUACAUGAGGAUCACCCAUGUGUAAAAAUAAAUACACAAAAGAAAGUAGAAGGCCACAAAA [Ex 3 May 10] | 25.8

From the supplement of paper PMC9170038
